US20060270596A1 (CENTRE NATIONAL DE LA RECHERCHE SCIENTIFIQUE CNRS, published 2006)
One block for each binder: values may come before it.

B1: human THAP1 (THanatos-Associated-Protein-1), full length (other)
chain: MVQSCSAYGCKNRYDKDKPVSFHKFPLTRPSLCKEWEAAVRRKNFKPTKYSSICSEHFTPDCFKRECNNKLLKENAVPTIFLCTEPHDKKEDLLEPQEQLPPPPLPPPVSQVDAAIGLLMPPLQTPVNLSVFCDHNYTVEDTMHQRKRIHQLEQQVEKLRKKLKTAQQRCRRQERQLEKLKEVVHFQKEKDDVSERGYVILPNDYFEIVEVPA
notes: these tags are not written into the chain; also called hTHAP1; THAP1 wild type
B3: GST-Par4DD fusion protein (Par4 amino acids 250-342) (other)
chain: GFPRYNRDANVSGTLVSSSTLEKKIEDLEKEVVTERQENLRLVRLMQDKEEMIGKLKEEIDLLNRDLDDIEDENEQLKQENKTLLKVVGQLTR
notes: Expressed in E. coli, immobilized on glutathione sepharose; not shown: glutathione S-transferase encoded by vector pGEX-2T (Amersham Pharmacia Biotech)

Key:
[1] = biological target: T1, Par4 deletion mutant lacking the leucine zipper/death domain (Par4Δ, amino acids 1-276) (human, UniProt Q96IZ0 1-274); experiment: yeast two-hybrid
T1 construct: Gal4 fusion in two-hybrid; also called Par4A; PAR4A
T1 sequence: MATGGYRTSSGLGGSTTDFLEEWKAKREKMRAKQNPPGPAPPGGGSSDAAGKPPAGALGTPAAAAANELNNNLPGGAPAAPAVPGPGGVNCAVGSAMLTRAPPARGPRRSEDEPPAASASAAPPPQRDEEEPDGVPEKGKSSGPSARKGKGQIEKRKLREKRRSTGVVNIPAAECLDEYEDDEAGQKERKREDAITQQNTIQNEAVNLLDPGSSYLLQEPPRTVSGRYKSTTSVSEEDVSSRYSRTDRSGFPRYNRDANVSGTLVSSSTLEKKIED

[2] = biological target: the molecule itself; experiment: yeast two-hybrid, THAP1 bait
[3] = biological target: T2, GST (glutathione S-transferase) control protein (UniProt P08515 1-218 = GST); experiment: GST pull-down, negative control: in vitro translated 35S-labelled protein on GST alone immobilised on glutathione sepharose, SDS-PAGE, fluorography
T2 construct: Negative control in GST pull-down assays; also called GST beads; GST alone
Protocol: To confirm the interaction observed in yeast, we performed in vitro GST pull down assays. Par4DD, expressed as a GST-tagged fusion protein and immobilized on glutathione sepharose, was incubated with radiolabeled in vitro translated THAP1. To generate the GST-Par4DD expression vector, Par4DD (amino acids 250-342) was amplified by PCR with primers Par4.10 (5′-[…]-3′) (SEQ ID NO: 194) and Par4.5, and cloned in frame downstream of the Glutathion S-Transferase ORF, into the BamHI site of the pGEX-2T prokaryotic expression vector (Amersham Pharmacia Biotech, Saclay, France). GST-Par4DD (amino acids 250-342) fusion protein encoded by plasmid pGEX-2T-Par4DD and control GST protein encoded by plasmid pGEX-2T, were then expressed in E. coli DH5α and purified by affinity chromatography with glutathione sepharose according to supplier's instructions (Amersham Pharmacia Biotech). The yield of proteins used in GST pull-down assays was determined by SDS-Polyarylamide Gel Electrophoresis (PAGE) and Coomassie blue staining analysis. In vitro-translated THAP1 was generated with the TNT-coupled reticulocyte lysate system (Promega, Madison, Wis., USA) using pGBKT7-THAP1 vector as template. […]

[4] = biological target: B3; experiment: GST pull-down
[5] = biological target: B1; experiment: yeast two-hybrid, THAP1 bait
[6] = biological target: T3, human chemokine SLC/CCL21, mature form (amino acids 24-134) (human, UniProt O00585 24-134); experiment: yeast two-hybrid, SLC/CCL21 bait
T3 construct: GenBank NP-002980; Used as Gal4 fusion in two-hybrid and as 35S-labelled in vitro translation product in pull-downs; also called SLC/6Ckine; SLC/CCL21 wild type
T3 sequence: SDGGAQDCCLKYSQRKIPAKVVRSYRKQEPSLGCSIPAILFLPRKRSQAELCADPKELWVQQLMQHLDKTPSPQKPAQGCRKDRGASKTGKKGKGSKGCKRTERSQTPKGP

[7] = biological target: T4, Par4 leucine zipper/death domain (Par4DD, amino acids 250-342) (human, UniProt Q96IZ0 248-340); experiment: yeast two-hybrid and in vivo interaction assay
T4 construct: Gal4 fusion in two-hybrid; also called myc-Par4DD
T4 chain: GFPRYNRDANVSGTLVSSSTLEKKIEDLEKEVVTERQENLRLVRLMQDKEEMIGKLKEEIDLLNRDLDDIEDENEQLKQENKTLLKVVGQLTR

[8] = biological target: T5, human prostate apoptosis response-4 (PAR4), full length (human, UniProt Q96IZ0 1-340, limits assumed); experiment: yeast two-hybrid, Par4 wt bait
T5 construct: Gal4-BD or Gal4-AD fusion in two-hybrid; also called Par4 wild type
T5 chain: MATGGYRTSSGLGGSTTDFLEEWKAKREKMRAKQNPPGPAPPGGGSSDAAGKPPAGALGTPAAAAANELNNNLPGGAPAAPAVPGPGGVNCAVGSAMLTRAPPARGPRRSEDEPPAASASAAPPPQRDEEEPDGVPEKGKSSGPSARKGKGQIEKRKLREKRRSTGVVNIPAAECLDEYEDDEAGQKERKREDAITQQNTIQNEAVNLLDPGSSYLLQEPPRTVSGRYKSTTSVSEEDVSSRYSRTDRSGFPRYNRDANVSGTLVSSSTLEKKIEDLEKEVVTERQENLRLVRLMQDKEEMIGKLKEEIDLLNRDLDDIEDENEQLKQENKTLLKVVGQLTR
Protocol: for mutant THAP1ΔQRCRR. The resulting PCR fragments were digested with EcoRI and BamHI, and cloned in frame downstream of the Gal4 Binding Domain (Gal4-BD) in pGBKT7 two-hybrid vector (Clontech) to generate pGBKT7-THAP1-RR/AA and -Δ(QRCRR), or downstream of the Enhanced Green Fluorescent Protein (EGFP)ORF in pEGFP.C2 vector (Clontech) to generate pEGFP.C2-THAP1-RR/AA and -Δ(QRCRR). THAP1RR/AA and THAP1ΔQRCRR THAP1 mutants were then tested in the three THAP1/Par4 interaction assays (two-hybrid assay, in vitro THAP1/Par4 interaction assay, in vivo THAP1/Par4 interaction assay) as described above for the THAP1-C1, -C2, -C3, -N1, -N2 or -N3 mutants.

[9] = biological target: T6, THAP1ΔQRCRR mutant (deletion of residues 168-172) (human, UniProt Q9NVV9 1-213); experiment: GST pull-down
T6 sequence: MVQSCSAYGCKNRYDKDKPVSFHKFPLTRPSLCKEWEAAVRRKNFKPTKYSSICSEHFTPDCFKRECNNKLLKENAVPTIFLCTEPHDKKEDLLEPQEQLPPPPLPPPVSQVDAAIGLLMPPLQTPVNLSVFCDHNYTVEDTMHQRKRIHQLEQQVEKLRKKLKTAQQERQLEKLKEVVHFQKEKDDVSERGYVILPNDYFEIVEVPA

[10] = biological target: T7, THAP1-N2 deletion mutant (amino acids 1-166) (human, UniProt Q9NVV9 1-166); experiment: GST pull-down: in vitro translated 35S-labelled protein on GST-Par4DD immobilised on glutathione sepharose, SDS-PAGE, fluorography
T7 construct: Gal4 fusion, in vitro translation product or GFP fusion according to assay
T7 sequence: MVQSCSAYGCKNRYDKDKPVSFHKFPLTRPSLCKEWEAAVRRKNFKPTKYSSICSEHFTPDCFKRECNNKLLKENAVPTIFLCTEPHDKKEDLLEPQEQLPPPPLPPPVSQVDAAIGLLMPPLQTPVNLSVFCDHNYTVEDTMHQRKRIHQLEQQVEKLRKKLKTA
Protocol: (§1) THAP1 mutants were also tested in the in vitro THAP1/Par4 interaction assay. In vitro-translated THAP1 mutants were generated with the TNT-coupled reticulocyte lysate system (Promega, Madison, Wis., USA) using pGBKT7-THAP1-C1, -C2, -C3, -N1, -N2 or -N3 vector as template. 25 μl of each ³⁵S-labelled THAP1 mutant was incubated with immobilized GST or GST-Par4 protein overnight at 4° C., in the following binding buffer: 10 mM NaPO4 pH 8.0, 140 mM NaCl, 3 mM MgCl2, 1 mM dithiothreitol (DTT), 0.05% NP40, and 0.2 mM phenylmethyl sulphonyl fluoride (PMSF), 1 mM Na Vanadate, 50 mM β Glycerophosphate, 25 μg/ml chimotrypsine, 5 μg/ml aprotinin, 10 μg/ml Leupeptin. Beads were then washed 5 times in 1 ml binding buffer. Bound proteins were eluted with 2× Laemmli SDS-PAGE sample buffer, fractionated by 10% SDS-PAGE and visualized by fluorography using Amplify (Amersham Pharmacia Biotech). As expected, THAP1-C1, -C2, -C3, -and -N3 interacted with GST/Par4DD (FIG. 4B).

[11] = biological target: T8, THAP1-N1 deletion mutant (amino acids 1-90) (human, UniProt Q9NVV9 1-90); experiment: as above
T8 construct: Gal4 fusion, in vitro translation product or GFP fusion according to assay; also called zinc finger domain of THAP1
T8 sequence: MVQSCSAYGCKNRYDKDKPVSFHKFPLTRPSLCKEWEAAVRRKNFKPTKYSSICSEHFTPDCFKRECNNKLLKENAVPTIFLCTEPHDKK
Protocol: as §1

T2 sequence (P08515 whole entry): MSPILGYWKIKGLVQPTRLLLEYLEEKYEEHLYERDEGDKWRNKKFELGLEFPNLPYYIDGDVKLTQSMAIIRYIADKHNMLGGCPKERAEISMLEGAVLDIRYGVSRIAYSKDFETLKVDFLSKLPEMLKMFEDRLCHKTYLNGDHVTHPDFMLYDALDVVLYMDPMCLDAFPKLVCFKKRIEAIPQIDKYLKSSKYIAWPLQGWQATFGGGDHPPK

Binder: B1
binding result [1]: no binding
binding result [2]: binds
binding result [3]: no binding

binding result [4]: no binding
binding result [5]: binds
binding result [6]: binds
binding result [8]: no binding
B2: THAP1 RR/AA mutant (R171A, R172A) (other)
chain: MVQSCSAYGCKNRYDKDKPVSFHKFPLTRPSLCKEWEAAVRRKNFKPTKYSSICSEHFTPDCFKRECNNKLLKENAVPTIFLCTEPHDKKEDLLEPQEQLPPPPLPPPVSQVDAAIGLLMPPLQTPVNLSVFCDHNYTVEDTMHQRKRIHQLEQQVEKLRKKLKTAQQRCAAQERQLEKLKEVVHFQKEKDDVSERGYVILPNDYFEIVEVPA
notes: Gal4-BD fusion, in vitro translation product or GFP fusion according to assay; also called THAP RR/AA
binding result [7]: no binding

Binder: B3
binding result [9]: no binding
binding result [10]: no binding
binding result [11]: no binding
